Experimental data from paper PMC4960556.

Molecular target: prostate-specific membrane antigen (PSMA) (UniProt Q04609)
Assay: confocal microscopy on cells (binding and internalization)
Details: 2'-F pyrimidines (stated for PSEP; implied), Flow binding: 50 nM Cy3-RNA on trypsinized, PBS-washed cells, 300 ug/ml yeast tRNA, 30 min, 37 C, internalization: 100 nM in RPMI 1640 + 5% FBS

Chain of UniProt Q04609 (Q04609 whole entry): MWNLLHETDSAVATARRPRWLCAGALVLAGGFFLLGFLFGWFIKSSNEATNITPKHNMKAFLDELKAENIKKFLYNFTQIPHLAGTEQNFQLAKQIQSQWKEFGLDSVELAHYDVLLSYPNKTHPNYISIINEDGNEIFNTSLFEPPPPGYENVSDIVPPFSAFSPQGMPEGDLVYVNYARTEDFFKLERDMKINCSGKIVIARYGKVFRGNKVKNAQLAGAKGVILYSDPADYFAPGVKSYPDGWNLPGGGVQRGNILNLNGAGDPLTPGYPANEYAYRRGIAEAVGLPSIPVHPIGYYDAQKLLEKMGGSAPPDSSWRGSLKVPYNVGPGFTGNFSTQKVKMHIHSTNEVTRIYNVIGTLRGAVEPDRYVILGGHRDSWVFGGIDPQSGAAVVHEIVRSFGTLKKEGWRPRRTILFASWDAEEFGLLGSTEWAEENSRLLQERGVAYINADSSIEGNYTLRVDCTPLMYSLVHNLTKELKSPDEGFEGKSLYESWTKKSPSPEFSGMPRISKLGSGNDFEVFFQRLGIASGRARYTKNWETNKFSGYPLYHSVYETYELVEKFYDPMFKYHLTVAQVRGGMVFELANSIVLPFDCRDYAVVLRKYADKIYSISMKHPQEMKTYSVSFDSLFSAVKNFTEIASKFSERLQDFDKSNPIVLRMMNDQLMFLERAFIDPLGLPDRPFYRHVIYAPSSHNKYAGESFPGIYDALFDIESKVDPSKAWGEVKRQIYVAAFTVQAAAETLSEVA

## GGGAGGACGAUGCGGAUCAGCCAUGUUUACGUCACUCCUAAAAUGUAGAGAUGCGGUGGUCCUU / GGAUCCCGACUGGCGAGAGCCAGGUAACGAAUGGAUCCAAAAACCUUAGCAGUCUUAUCUAAUUUUGGACCACCGCAUCUCUACAUU / UUAGAUAAGACUGCUAAGGCA [PSEM (monovalent: one PSMA aptamer, one MG aptamer)]
  binding signal (fraction of PSEP fluorescence): 0.5
